*1 amine or outer side, *2 acyl side, *3 side chain or, on linkers, in order; H or OH if unused. Bridges are numbered along the chain shown (N, C = ends). [ ]: non-standard residue; d: D form. The star is where a group is joined. DOTA = O=C(O)CN1CCN(CC(=O)O)CCN(CC(=O)*)CCN(CC(=O)O)CC1; N(2-mercaptoethyl)Gly = O=C(CN(CCS[*:3])[*:1])[*:2]; 4Amb = NCc1ccc(C(=O)O)cc1; Aoc = NCCCCCCCC(=O)O; CPT = camptothecin; GABA = NCCCC(=O)O
Tests used:
Assay in all cases: Radioligand binding, displacement of 125I-Tyr11-SRIF-14
SSTR1 = SSTR1 (Homo sapiens, UniProt P30872); set-up: host or cells: CHO (Chinese Hamster Ovary) cells, membrane preparation; settings: hSSTR-1
SSTR1, sequence (P30872 whole entry): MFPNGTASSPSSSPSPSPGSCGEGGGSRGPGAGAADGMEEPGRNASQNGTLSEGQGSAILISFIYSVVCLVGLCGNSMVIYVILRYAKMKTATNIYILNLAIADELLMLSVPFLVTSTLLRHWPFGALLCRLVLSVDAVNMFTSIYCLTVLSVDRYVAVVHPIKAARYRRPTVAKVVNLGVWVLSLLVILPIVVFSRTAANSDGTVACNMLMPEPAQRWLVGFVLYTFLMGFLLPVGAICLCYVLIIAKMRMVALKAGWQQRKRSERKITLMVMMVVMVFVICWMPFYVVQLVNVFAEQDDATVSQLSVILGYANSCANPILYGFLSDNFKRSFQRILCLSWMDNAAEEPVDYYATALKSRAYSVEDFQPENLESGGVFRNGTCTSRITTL
From the text: (§1) The binding to human cloned receptors SSTR-1, or SSTR-2 or SSTR-3 evaluated in stable and selective transfected CHO (Chinese Hamster Ovary) cells and binding to STSR-4 and SSTR-5 in stable and selective transfected Chem-1 (Rat ChemiSCREEN) cells. […] The binding reactions were filtered, the filters were washed, and the bound radioactivity was counted using a gamma counter.
(§2) The following table depicts the conditions of binding assay to each of the somatostatin receptors used for the evaluations of binding affinities of the tested peptides. All assays were performed by quantitation method of radioligand binding under 25° C. The vehicle was 1% DMSO, the incubation buffer was 25 mM HEPES, pH 7.4, 5 mM MgCl2, 1 mM CaCl2, 0.1% BSA. […] The significance criteria were >50% of max inhibition. […] This specific binding data used for calculation of Bmax values which is the concentration of each of the expressed cloned receptor in its transfected cell system.
(§3) The Results of IC50 values were determined by a non-linear, least squares regression analysis using MathIQ™ (ID Business Solutions Ltd., UK). […] The Hill coefficient (nH), defining the slope of the competitive binding curve, was calculated using MathIQ™.

SSTR2 = SSTR2 (Homo sapiens, UniProt P30874); set-up: host or cells: CHO (Chinese Hamster Ovary) cells, membrane preparation; settings: hSSTR-2
SSTR2, sequence (P30874 whole entry): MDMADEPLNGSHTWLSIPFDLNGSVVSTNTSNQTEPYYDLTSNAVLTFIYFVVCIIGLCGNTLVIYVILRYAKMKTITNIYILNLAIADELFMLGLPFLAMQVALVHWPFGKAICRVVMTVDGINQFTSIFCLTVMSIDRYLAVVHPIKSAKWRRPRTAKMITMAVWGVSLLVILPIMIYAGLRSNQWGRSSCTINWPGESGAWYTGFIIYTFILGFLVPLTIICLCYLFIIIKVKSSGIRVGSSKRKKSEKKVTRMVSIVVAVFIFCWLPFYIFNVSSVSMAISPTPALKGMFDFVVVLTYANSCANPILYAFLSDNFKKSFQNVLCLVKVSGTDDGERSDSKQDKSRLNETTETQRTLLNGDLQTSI
From the text: as §1, §2, §3

SSTR3 = SSTR3 (Homo sapiens, UniProt P32745); set-up: host or cells: CHO (Chinese Hamster Ovary) cells, membrane preparation; settings: for % displacement of [^125I] Tyr^11-SRIF-14: hSSTR-3; for affinity and selectivity to SSTR3 (in words): binding data
SSTR3, sequence (P32745 whole entry): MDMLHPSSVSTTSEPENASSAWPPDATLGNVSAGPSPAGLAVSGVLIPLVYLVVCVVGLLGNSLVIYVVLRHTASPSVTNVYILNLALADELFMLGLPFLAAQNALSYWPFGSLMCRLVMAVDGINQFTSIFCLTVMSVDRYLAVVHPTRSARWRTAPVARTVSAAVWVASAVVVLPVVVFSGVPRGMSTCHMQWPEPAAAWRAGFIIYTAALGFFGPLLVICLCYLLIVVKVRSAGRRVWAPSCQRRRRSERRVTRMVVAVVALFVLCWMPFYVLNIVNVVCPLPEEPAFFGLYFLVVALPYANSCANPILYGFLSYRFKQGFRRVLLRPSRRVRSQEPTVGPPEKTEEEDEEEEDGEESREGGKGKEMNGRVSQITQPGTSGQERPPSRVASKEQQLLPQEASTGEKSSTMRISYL
From the text: as §1, §2, §3

SSTR5 = SSTR5 (Homo sapiens, UniProt P35346); set-up: host or cells: Chem-1 (Rat ChemiSCREEN) cells, membrane preparation; settings: hSSTR-5
SSTR5, sequence (P35346 whole entry): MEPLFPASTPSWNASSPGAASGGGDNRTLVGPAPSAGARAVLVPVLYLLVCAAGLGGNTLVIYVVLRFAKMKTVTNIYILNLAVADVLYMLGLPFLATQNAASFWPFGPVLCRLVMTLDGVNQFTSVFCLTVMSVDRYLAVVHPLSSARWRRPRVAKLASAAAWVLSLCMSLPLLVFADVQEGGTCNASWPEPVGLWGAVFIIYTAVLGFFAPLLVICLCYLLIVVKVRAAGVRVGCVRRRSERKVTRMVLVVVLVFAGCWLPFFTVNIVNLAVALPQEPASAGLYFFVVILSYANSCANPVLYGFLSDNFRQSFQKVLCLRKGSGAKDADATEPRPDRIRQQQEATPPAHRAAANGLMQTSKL
From the text: as §1, §2, §3

hSSTR-4 = biological target: T1, hSSTR-4 (Homo sapiens, UniProt P31391); settings: hSSTR-4
T1 construct: host or cells: Chem-1 (Rat ChemiSCREEN) cells, membrane preparation
T1 sequence (P31391 whole entry): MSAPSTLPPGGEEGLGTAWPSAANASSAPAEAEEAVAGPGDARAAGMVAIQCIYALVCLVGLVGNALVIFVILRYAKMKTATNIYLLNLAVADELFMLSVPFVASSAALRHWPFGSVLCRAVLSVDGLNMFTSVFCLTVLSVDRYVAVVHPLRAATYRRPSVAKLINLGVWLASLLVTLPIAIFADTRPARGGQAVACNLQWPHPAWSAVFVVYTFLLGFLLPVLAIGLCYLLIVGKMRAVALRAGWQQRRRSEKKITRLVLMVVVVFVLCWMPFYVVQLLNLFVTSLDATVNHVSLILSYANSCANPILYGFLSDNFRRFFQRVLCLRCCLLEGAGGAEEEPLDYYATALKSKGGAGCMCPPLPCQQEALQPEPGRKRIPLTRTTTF
From the text: as §1, §2, §3

| Substance | % displacement of [^125I] Tyr^11-SRIF-14 (SSTR1; at 1 nM (in brackets)) [%] | % displacement of [^125I] Tyr^11-SRIF-14 (SSTR1; at 10 nM) [%] | % displacement of [^125I] Tyr^11-SRIF-14 (SSTR2; at 1 nM (in brackets)) | % displacement of [^125I] Tyr^11-SRIF-14 (SSTR2; at 10 nM) | % displacement of [^125I] Tyr^11-SRIF-14 (SSTR3; at 1 nM (in brackets)) [%] | % displacement of [^125I] Tyr^11-SRIF-14 (SSTR3; at 10 nM) [%] | % displacement of [^125I] Tyr^11-SRIF-14 (SSTR5; at 1 nM (in brackets)) | % displacement of [^125I] Tyr^11-SRIF-14 (SSTR5; at 10 nM) | % displacement of [^125I] Tyr^11-SRIF-14 (hSSTR-4; at 1 nM (in brackets)) | % displacement of [^125I] Tyr^11-SRIF-14 (hSSTR-4; at 10 nM) | affinity to SSTR3 (SSTR3) [nM] | affinity and selectivity to SSTR3 (in words) (SSTR3) |
| --- | --- | --- | --- | --- | --- | --- | --- | --- | --- | --- | --- | --- |
| (DOTA)2-Lys^1-D-Phe^2-Arg^3-Cys^4-Phe^5-D-Trp^6-Lys^7-Thr^8-Phe^9-NTEG^10-NH2 (cyclo 3-9) ({DOTA}-K(DOTA)[dF]RCF[dW]KTF[N(2-mercaptoethyl)Gly]-NH2; disulfide 4-10 (inferred); not fully specified; printed as (DOTA)2-Lys1-D-Phe2-Arg3-Cys4-Phe5-D-Trp6-Lys7-Thr8-Phe9-NTEG10-NH2 (cyclo 3-9)) [SEQ ID NO: 16] | 0 | 5 | 6% | 2% | 47 | 88 | 0% | 3% | 0(0) % | 0(0) % |  |  |
| CPT-8-aminooctanoic acid-D-Phe^1-Arg^2-Cys^3-Phe^4-D-Trp^5-Lys^6-Thr^7-Phe^8-NTEG^9-NH2 (cyclo 3-9) ({CPT-Aoc}-[dF]RCF[dW]KTF[N(2-mercaptoethyl)Gly]-NH2; disulfide 3-9) [SEQ ID NO: 27] | 0 | 3 | 0(0) % | 0(0) % | 12 | 51 | 0(0) % | 0(0) % | 0(0) % | 0(0) % | ≤ 10 | the same selectivity to SSTR3 as SEQ ID NO: 1 |
| DOTA-4-Amb-D-Phe^1-Arg^2-Cys^3-Phe^4-D-Trp^5-Lys^6-Thr^7-Phe^8-NTEG^9-NH2 (cyclo 3-9) ({DOTA-4Amb}-[dF]RCF[dW]KTF[N(2-mercaptoethyl)Gly]-NH2; disulfide 3-9) [SEQ ID NO: 18] | 0 | 4 | 0(0) % | 0(0) % | 49 | 85 | 0(0) % | 0(0) % | 0% | 8% |  |  |
| DOTA-8-aminooctanoic acid-D-Phe^1-Arg^2-Cys^3-Phe4-D-Trp^5-Lys^6-Thr^7-Phe^8-NTEG^9-NH^2(cyclo 3-9) ({DOTA-Aoc}-[dF]RCF[dW]KTF[N(2-mercaptoethyl)Gly]-NH2; disulfide 3-9) [SEQ ID NO: 15] | 6 | 18 | 1% | 0% | 49 | 87 | 0(0) % | 0(0) % | 0(0) % | 0(0) % |  |  |
| DOTA-Ala^1-D-Phe^2-Arg^3-Cys^4-Phe^5-D-Trp^6-Lys^7-Thr^8-Phe^9-NTEG^10-NH2 (cyclo 4-10) ({DOTA}-A[dF]RCF[dW]KTF[N(2-mercaptoethyl)Gly]-NH2; disulfide 4-10; SMILES C[C@H](NC(=O)CN1CCN(CC(=O)O)CCN(CC(=O)O)CCN(CC(=O)O)CC1)C(=O)N[C@H](Cc1ccccc1)C(=O)N[C@@H](CCCNC(=N)N)C(=O)N[C@H]1CSSCCN(CC(N)=O)C(=O)[C@H](Cc2ccccc2)NC(=O)[C@H]([C@@H](C)O)NC(=O)[C@H](CCCCN)NC(=O)[C@@H](Cc2c[nH]c3ccccc23)NC(=O)[C@H](Cc2ccccc2)NC1=O) [SEQ ID NO: 12] | 0 | 10 | 0(0) % | 0(0) % | 64 | 93 | 0% | 13% | 0(0) % | 0(0) % |  |  |
| DOTA-Arg^1-Gly^2-Asp^3-D-Phe^4-Arg^5-Cys^6-Phe^7-D-Trp^8-Lys^9-Thr^10-Phe^11-NTEG^12- NH2 (cyclo 6-12) ({DOTA}-RGD[dF]RCF[dW]KTF[N(2-mercaptoethyl)Gly]-NH2; disulfide 6-12; SMILES C[C@@H](O)[C@@H]1NC(=O)[C@H](CCCCN)NC(=O)[C@@H](Cc2c[nH]c3ccccc23)NC(=O)[C@H](Cc2ccccc2)NC(=O)[C@@H](NC(=O)[C@H](CCCNC(=N)N)NC(=O)[C@@H](Cc2ccccc2)NC(=O)[C@H](CC(=O)O)NC(=O)CNC(=O)[C@H](CCCNC(=N)N)NC(=O)CN2CCN(CC(=O)O)CCN(CC(=O)O)CCN(CC(=O)O)CC2)CSSCCN(CC(N)=O)C(=O)[C@H](Cc2ccccc2)NC1=O) [SEQ ID NO: 14] |  |  |  |  | 46 | 89 |  |  |  |  |  | did not interfere with the affinity and selectivity of SEQ ID NO: 3 to SSTR3 |
| DOTA-D-Phe^1-Arg^2-Cys^3-Tyr^4-D-Trp^5-Lys^6-Thr^7-Phe^8-NTEG^9-NH2 (cyclo 3-9) ({DOTA}-[dF]RCY[dW]KTF[N(2-mercaptoethyl)Gly]-NH2; disulfide 3-9; SMILES C[C@@H](O)[C@@H]1NC(=O)[C@H](CCCCN)NC(=O)[C@@H](Cc2c[nH]c3ccccc23)NC(=O)[C@H](Cc2ccc(O)cc2)NC(=O)[C@@H](NC(=O)[C@H](CCCNC(=N)N)NC(=O)[C@@H](Cc2ccccc2)NC(=O)CN2CCN(CC(=O)O)CCN(CC(=O)O)CCN(CC(=O)O)CC2)CSSCCN(CC(N)=O)C(=O)[C@H](Cc2ccccc2)NC1=O) [SEQ ID NO: 25] | 1 | 15 | 0(0) % | 0(0) % | 65 | 94 | 6% | 16% | 5% | 8% |  |  |
| DOTA-D-Phe^1-Lys^2-Cys^3-Tyr^4-D-Trp^5-Lys^6-Thr^7-Phe^8-NTEG^9 -NH2 (cyclo 3-9) ({DOTA}-[dF]KCY[dW]KTF[N(2-mercaptoethyl)Gly]-NH2; disulfide 3-9; SMILES C[C@@H](O)[C@@H]1NC(=O)[C@H](CCCCN)NC(=O)[C@@H](Cc2c[nH]c3ccccc23)NC(=O)[C@H](Cc2ccc(O)cc2)NC(=O)[C@@H](NC(=O)[C@H](CCCCN)NC(=O)[C@@H](Cc2ccccc2)NC(=O)CN2CCN(CC(=O)O)CCN(CC(=O)O)CCN(CC(=O)O)CC2)CSSCCN(CC(N)=O)C(=O)[C@H](Cc2ccccc2)NC1=O) [SEQ ID NO: 24] |  |  |  |  | 66 | 88 |  |  |  |  |  |  |
| DOTA-GABA-D-Phe^1-Arg^2-Cys^3-Phe^4-D-Trp^5-Lys^6-Thr^7-Phe^8-NTEG^9-NH2 (cyclo 3-9) ({DOTA-GABA}-[dF]RCF[dW]KTF[N(2-mercaptoethyl)Gly]-NH2; disulfide 3-9) [SEQ ID NO: 7] |  |  |  |  |  |  |  |  |  |  |  | increased the affinity and selectivity |

Reference: patent publication US20240165282A1, “CONFORMATIONAL CONSTRAINED SOMATOSTATIN RECEPTOR 3 PEPTIDE LIGANDS AND THEIR CONJUGATES AND USES THEREOF” (STARGET PHARMA LTD., priority 2021, published 2024)
